The values that follow come from patent US20210244795A1.

Holding throughout (assay): cell-based or functional assay
Assay [1] has as its target HIV envelope gp160 of 398F1 (pseudotyped virus) (HIV).
The target of assay [2] is HIV envelope gp160 of CE0217 (pseudotyped virus) (HIV).
The target in assay [3] is HIV envelope gp160 of TRO11 (pseudotyped virus) (HIV).
The target in assay [4] is HIV envelope gp160 of 246F3 (pseudotyped virus) (HIV).
In assay [5] the target is HIV envelope gp160 of CNE8 (pseudotyped virus) (HIV).
Assay [6] has as its target HIV envelope gp160 of 25710 (pseudotyped virus, Tier 2, clade C) (HIV).
Assay [7] concerns the target HIV envelope gp160 of X2278 (pseudotyped virus) (HIV).
For assay [8], the target named is HIV envelope gp160 of CNE55 (pseudotyped virus) (HIV).
The target in assay [9] is HIV envelope gp160 of BJOX2000 (pseudotyped virus) (HIV).
For assay [10], the target named is HIV envelope gp160 of CE1176 (pseudotyped virus) (HIV).
Assay [11] has as its target HIV envelope gp160 of X1632 (pseudotyped virus) (HIV).
Assay [12] concerns the target HIV envelope gp160 of CH119 (pseudotyped virus) (HIV).
For assay [13], the target named is SIVmac239 envelope (pseudotyped virus, tier 3 isolate) (SIV).

Where only a bound is given, the exact number is not on record here.

Consider “ReCD4-Ig (expressed from p-ReCD4-Ig alone, no co-delivered sulfotransferase) (Fc fusion)”, for which the IC50, pseudovirus neutralization, TZM-bl assay, mouse sera in assay [1], in assay [2], in assay [3], in assay [4], in [5] and in assay [6] was less than 5 µg/mL in each case. Besides, the IC50, pseudovirus neutralization, TZM-bl assay, mouse sera in [7], in assay [8], in assay [9], in assay [10], in assay [11] and in assay [12] was less than 5 µg/mL each time. The IC50, pseudovirus neutralization, TZM-bl assay, mouse sera in assay [13] is less than 5 µg/mL. The same substance yielded an IC50, neutralization of 25710 pseudovirus, TZM-bl assay, mouse sera in [6] of 1.09 µg/mL. Also, in assay [6], the IC80, neutralization of 25710 pseudovirus, TZM-bl assay, mouse sera was 3.27 µg/mL. Also, the IC50, neutralization of CE1176 pseudovirus, TZM-bl assay, mouse sera in [10] turned out to be 0.57 µg/mL.
Turning to “ReCD4-Ig sulfated by co-expressed IgE-TPST2 (Fc fusion)”, the IC50, pseudovirus neutralization, TZM-bl assay, mouse sera in assay [1], in [2], in assay [3], in [4], in [5] and in assay [6] was less than 5 µg/mL in each case. In addition, the IC50, pseudovirus neutralization, TZM-bl assay, mouse sera in [7], in assay [8], in assay [9], in assay [10], in assay [11] and in assay [12] was less than 5 µg/mL each time. In assay [6], this substance registered an IC50, neutralization of 25710 pseudovirus, TZM-bl assay, mouse sera of 0.16 µg/mL. The substance also gave an IC80, neutralization of 25710 pseudovirus, TZM-bl assay, mouse sera in assay [6] of 1.35 µg/mL. The values for the fold drop in IC50 against ReCD4-Ig without sulfation in assay [6] and in assay [10] were 6.8 fold and 10 fold, respectively. The fold drop in IC80 against ReCD4-Ig without sulfation in [6] came to 2.4 fold. In addition, the IC50, neutralization of CE1176 pseudovirus, TZM-bl assay, mouse sera in [10] came out at 0.05 µg/mL.
